One experiment relates to A. thaliana. Briefly: Seed germination of A. thaliana transformants on ½ MS media containing herbicides. The experiment is classed as in vivo, Arabidopsis thaliana. The following applies: T3 lines; 25 μM glufosinate, 25 μM glufosinate+70 nM tiafenacil, or 25 μM glufosinate+30 nM tiafenacil+40 nM saflufenacil; 7 days after sowing. The text has this:
T3 generation seeds of each transformant were sown in ½ MS media containing herbicides. Col-0 ecotype (wild type Arabidopsis) seeds were used as a control. The kinds of herbicides and concentration are as follows:
In FIGS. 31a to 31c, 10-3 refers to CyPPO10 wild type, 10FM-4-7 to the CyPPO10 F360M transgenic line, 10FL-1-9 to the CyPPO10 F360L transgenic line, 10FC-3-5 to the CyPPO10 F360C transgenic line, 10AC-5-4 to the CyPPO10 A167C transgenic line, 13-1 to CyPPO13 wild type, 13FM-3-1 to the CyPPO13 F373M transgenic line, 13FC-1-1 to the CyPPO13 F373C transgenic line, 13FI-2-1 to the CyPPO13 F373I transgenic line, 13AC-1-3 to the CyPPO13 A177C transgenic line, CyPPO13_ALFL to the CyPPO13 A177L+F373L transgenic line, and CyPPO13_ALFI to the CyPPO13 A177L+F373I transgenic line, respectively.

Another experiment relates to CyPPO10. Put plainly: PPO enzyme activity and IC50 by herbicides, CyPPO10 wild type and variants (MBP-PPO fusion). The class given is biochemical, Thermosynechococcus elongatus BP-1. The following applies: PPO enzyme activity of CyPPO10 protein, wild type = 100. The gist of the method: (§1)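 MBP-fused wild-type and variant CyPPO10 or CyPPO13 were expressed in E. coli BL21(DE3) and purified. After a 30 min oxygen-depleting preincubation with glucose oxidase-catalase in 50 mM Tris-Cl pH 8.0, 50 mM NaCl and 0.04% Tween 20, reactions used 50 μM substrate for 30 min at room temperature. Protoporphyrin IX fluorescence (ex 405/em 633 nm) was quantified against a standard curve.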

The next experiment relates to CyPPO13. Put plainly: PPO enzyme activity and IC50 by herbicides, CyPPO13 wild type and variants (MBP-PPO fusion). The class given is biochemical, Synechococcus sp. JA-3-3Ab. The note with it: PPO enzyme activity of CyPPO13 protein, wild type = 100. The gist of the method: as §1

B1: CyPPO10 F360M: CyPPO10 (SEQ ID NO: 2) PPO variant (protein)
chain: MIEVDVAIVGGGLSGLSVAWRLQRSAPHYSGVLLEASDRLGGNITTQAAEGFVWELGPNSFAPTPALLQLIAEVGLHSELIRGDRHLPRYIYWRGELYPLEPTRPLALATSNLLSPWGKVRAALGALGFVPPYLGSGDESVDSFFRRHLGQEVAERLVAPFVSGVYAGDPQQLSAAAAFRRIAQLEKLGGSLIAGALRLRRQQPPQPKPPAQVQMRPGELGSFREGLAALPRAIAQQLKAPLHLQTPVEAITPEPKGGYLLRSGEQTWHARSVVLATPAYQTAELVAPFQPAIARALATIPYPTVACVVLAYPAGLGRSVRPGFGVLVPRGQGIRTLGTIWSSCLFPQRTPAGWQVFTSMIGGATDPDLASLREEAIVEQVQQDLTRLLDLPAAKARLLGMKVWRRAIPQYIVGYPQQWQQVTHALTQTPGLFLCSNYAEGVALGDRVEHGNRTAAAVAAYLAGGQS
modifications: Synthetic CyPPO10
Consider B1, for which the “Seed germination in media containing herbicides” value (“Seed germination” below) in the experiment on A. thaliana is “germinated”. Also, the “Activity (%)” value in the experiment with CyPPO10 is recorded as 93%.

B2: CyPPO10 A167C: CyPPO10 (SEQ ID NO: 2) PPO variant (protein)
chain: MIEVDVAIVGGGLSGLSVAWRLQRSAPHYSGVLLEASDRLGGNITTQAAEGFVWELGPNSFAPTPALLQLIAEVGLHSELIRGDRHLPRYIYWRGELYPLEPTRPLALATSNLLSPWGKVRAALGALGFVPPYLGSGDESVDSFFRRHLGQEVAERLVAPFVSGVYCGDPQQLSAAAAFRRIAQLEKLGGSLIAGALRLRRQQPPQPKPPAQVQMRPGELGSFREGLAALPRAIAQQLKAPLHLQTPVEAITPEPKGGYLLRSGEQTWHARSVVLATPAYQTAELVAPFQPAIARALATIPYPTVACVVLAYPAGLGRSVRPGFGVLVPRGQGIRTLGTIWSSCLFPQRTPAGWQVFTSFIGGATDPDLASLREEAIVEQVQQDLTRLLDLPAAKARLLGMKVWRRAIPQYIVGYPQQWQQVTHALTQTPGLFLCSNYAEGVALGDRVEHGNRTAAAVAAYLAGGQS
modifications: Synthetic CyPPO10
Regarding B2, the “Seed germination” value with A. thaliana is given as “germinated”. Besides, the “Activity (%)” value in the experiment with CyPPO10 came out at 98%.

B3: CyPPO10 F360I: CyPPO10 (SEQ ID NO: 2) PPO variant (protein)
chain: MIEVDVAIVGGGLSGLSVAWRLQRSAPHYSGVLLEASDRLGGNITTQAAEGFVWELGPNSFAPTPALLQLIAEVGLHSELIRGDRHLPRYIYWRGELYPLEPTRPLALATSNLLSPWGKVRAALGALGFVPPYLGSGDESVDSFFRRHLGQEVAERLVAPFVSGVYAGDPQQLSAAAAFRRIAQLEKLGGSLIAGALRLRRQQPPQPKPPAQVQMRPGELGSFREGLAALPRAIAQQLKAPLHLQTPVEAITPEPKGGYLLRSGEQTWHARSVVLATPAYQTAELVAPFQPAIARALATIPYPTVACVVLAYPAGLGRSVRPGFGVLVPRGQGIRTLGTIWSSCLFPQRTPAGWQVFTSIIGGATDPDLASLREEAIVEQVQQDLTRLLDLPAAKARLLGMKVWRRAIPQYIVGYPQQWQQVTHALTQTPGLFLCSNYAEGVALGDRVEHGNRTAAAVAAYLAGGQS
modifications: Synthetic CyPPO10
On to B3, for which, in the experiment on A. thaliana, the “Seed germination” value was “germinated”. Besides, the “Activity (%)” value in the experiment with CyPPO10 turned out to be 67%.

B4: CyPPO10 F360C: CyPPO10 (SEQ ID NO: 2) PPO variant (protein)
chain: MIEVDVAIVGGGLSGLSVAWRLQRSAPHYSGVLLEASDRLGGNITTQAAEGFVWELGPNSFAPTPALLQLIAEVGLHSELIRGDRHLPRYIYWRGELYPLEPTRPLALATSNLLSPWGKVRAALGALGFVPPYLGSGDESVDSFFRRHLGQEVAERLVAPFVSGVYAGDPQQLSAAAAFRRIAQLEKLGGSLIAGALRLRRQQPPQPKPPAQVQMRPGELGSFREGLAALPRAIAQQLKAPLHLQTPVEAITPEPKGGYLLRSGEQTWHARSVVLATPAYQTAELVAPFQPAIARALATIPYPTVACVVLAYPAGLGRSVRPGFGVLVPRGQGIRTLGTIWSSCLFPQRTPAGWQVFTSCIGGATDPDLASLREEAIVEQVQQDLTRLLDLPAAKARLLGMKVWRRAIPQYIVGYPQQWQQVTHALTQTPGLFLCSNYAEGVALGDRVEHGNRTAAAVAAYLAGGQS
modifications: Synthetic CyPPO10
B4: the “Seed germination” value with A. thaliana is recorded as “germinated”.

B5: CyPPO10 F360L: CyPPO10 (SEQ ID NO: 2) PPO variant (protein)
chain: MIEVDVAIVGGGLSGLSVAWRLQRSAPHYSGVLLEASDRLGGNITTQAAEGFVWELGPNSFAPTPALLQLIAEVGLHSELIRGDRHLPRYIYWRGELYPLEPTRPLALATSNLLSPWGKVRAALGALGFVPPYLGSGDESVDSFFRRHLGQEVAERLVAPFVSGVYAGDPQQLSAAAAFRRIAQLEKLGGSLIAGALRLRRQQPPQPKPPAQVQMRPGELGSFREGLAALPRAIAQQLKAPLHLQTPVEAITPEPKGGYLLRSGEQTWHARSVVLATPAYQTAELVAPFQPAIARALATIPYPTVACVVLAYPAGLGRSVRPGFGVLVPRGQGIRTLGTIWSSCLFPQRTPAGWQVFTSLIGGATDPDLASLREEAIVEQVQQDLTRLLDLPAAKARLLGMKVWRRAIPQYIVGYPQQWQQVTHALTQTPGLFLCSNYAEGVALGDRVEHGNRTAAAVAAYLAGGQS
modifications: Synthetic CyPPO10
For the molecule B5, in the experiment with A. thaliana, the “Seed germination” value is on record as “germinated”. Besides, the “Activity (%)” value with CyPPO10 stood at 59%.

B6: CyPPO13 F373I: CyPPO13 (SEQ ID NO: 4) PPO variant (protein)
chain: MNPATPEPLNAEVVVIGAGISGLTLAWRLQQGLSARGGSPQAVLLAEASSRVGGCISTQSKDGYRWEEGPNSFTPTPALLNLIAEVGLTDQLVLADAKLPRYIYWEGALLPVPLSPAAALGSRLLSVGGKLRALQGLLGFVPPPPGHEETVRQFFRRQLGSEVAERLVEPFTSGVYAGDPDQLSAVAAFPRVAGLEERYGSLFAGALQALRQRPQPSPAAIQPPPKRGQLGNLRQGLQQLPEALAQKLGDSLRLGWRALQLKRAGELYWVGFETPEGSRWVAARQVVLALPAYEAAALLQELNPPASQLLAEILYPPVAVVALAYPQEALPQPLRGFGHLIPRSQGLRTLGTIWASCLFPERAPQGYHSFLSILGGATDAALARRRGIPPIPALSPEERAQIAHAELSQVLLTRRAEPVYLGERLWPRAIPQYTLGHRQRIAQVQAHLASQTPGIWVCANYLDGVALGDCVRRAEALAQQLLSQV
modifications: Synthetic CyPPO13
Regarding B6, the “Activity (%)” value in the experiment with CyPPO13 is given as 83%. In addition, the “Seed germination” value in the experiment on A. thaliana is reported as “germinated”.

B7: CyPPO13 A177L + F373L: CyPPO13 (SEQ ID NO: 4) PPO variant (protein)
chain: MNPATPEPLNAEVVVIGAGISGLTLAWRLQQGLSARGGSPQAVLLAEASSRVGGCISTQSKDGYRWEEGPNSFTPTPALLNLIAEVGLTDQLVLADAKLPRYIYWEGALLPVPLSPAAALGSRLLSVGGKLRALQGLLGFVPPPPGHEETVRQFFRRQLGSEVAERLVEPFTSGVYLGDPDQLSAVAAFPRVAGLEERYGSLFAGALQALRQRPQPSPAAIQPPPKRGQLGNLRQGLQQLPEALAQKLGDSLRLGWRALQLKRAGELYWVGFETPEGSRWVAARQVVLALPAYEAAALLQELNPPASQLLAEILYPPVAVVALAYPQEALPQPLRGFGHLIPRSQGLRTLGTIWASCLFPERAPQGYHSFLSLLGGATDAALARRRGIPPIPALSPEERAQIAHAELSQVLLTRRAEPVYLGERLWPRAIPQYTLGHRQRIAQVQAHLASQTPGIWVCANYLDGVALGDCVRRAEALAQQLLSQV
modifications: Synthetic CyPPO13
B7: the “Activity (%)” value in the experiment on CyPPO13 is given as 68%. Also, the “Seed germination” value in the experiment on A. thaliana is given as “germinated”.

B8: CyPPO13 A177C: CyPPO13 (SEQ ID NO: 4) PPO variant (protein)
chain: MNPATPEPLNAEVVVIGAGISGLTLAWRLQQGLSARGGSPQAVLLAEASSRVGGCISTQSKDGYRWEEGPNSFTPTPALLNLIAEVGLTDQLVLADAKLPRYIYWEGALLPVPLSPAAALGSRLLSVGGKLRALQGLLGFVPPPPGHEETVRQFFRRQLGSEVAERLVEPFTSGVYCGDPDQLSAVAAFPRVAGLEERYGSLFAGALQALRQRPQPSPAAIQPPPKRGQLGNLRQGLQQLPEALAQKLGDSLRLGWRALQLKRAGELYWVGFETPEGSRWVAARQVVLALPAYEAAALLQELNPPASQLLAEILYPPVAVVALAYPQEALPQPLRGFGHLIPRSQGLRTLGTIWASCLFPERAPQGYHSFLSFLGGATDAALARRRGIPPIPALSPEERAQIAHAELSQVLLTRRAEPVYLGERLWPRAIPQYTLGHRQRIAQVQAHLASQTPGIWVCANYLDGVALGDCVRRAEALAQQLLSQV
modifications: Synthetic CyPPO13
In the case of B8, the “Activity (%)” value in the experiment with CyPPO13 is on record as 98%. For the same molecule, the “Seed germination” value with A. thaliana is listed as “germinated”.

Source of the values: patent publication US11466286B2, “Methods and compositions for conferring and/or enhancing herbicide tolerance using protoporphyrinogen oxidase or variant thereof” (FarmHannong Co., Ltd., priority 2016, dated 2022).
